Measurements: the supplement of paper PMC11136658

System: peptide library, one residue held at a place counted from the Y acceptor
Assay: relative phosphorylation of the sub-library (ratio to the mean residue at this position); higher = residue favoured
How it was run: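 Each value expresses phosphorylation relative to the mean randomized residue. Purified recombinant kinases acted for 90 min in 384-well plates on biotinylated Tyr-centred peptide library mixtures, with one residue fixed at one position from −5 to +5, in the presence of 50 μM ATP with γ-32P-ATP. Signals were read by phosphorimaging after capture on streptavidin membranes, then normalized per position to the sum of the 18 randomized residues (16 in the Ser/Thr-free library) and multiplied by that number.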

Chain of LIMK1, construct: aa285-end, human (P53667 285-647, looked up): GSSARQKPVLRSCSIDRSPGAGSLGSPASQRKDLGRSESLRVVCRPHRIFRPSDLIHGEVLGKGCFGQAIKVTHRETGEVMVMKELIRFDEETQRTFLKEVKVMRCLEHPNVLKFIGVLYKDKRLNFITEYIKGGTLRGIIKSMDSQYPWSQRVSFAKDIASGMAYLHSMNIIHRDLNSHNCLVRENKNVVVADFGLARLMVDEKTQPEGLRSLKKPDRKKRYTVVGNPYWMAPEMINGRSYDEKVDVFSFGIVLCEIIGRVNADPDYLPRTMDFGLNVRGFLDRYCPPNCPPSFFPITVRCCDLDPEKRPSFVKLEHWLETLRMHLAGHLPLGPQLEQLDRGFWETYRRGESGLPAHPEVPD
Chain of KIT, construct: aa544-end, human (P10721 544-976, looked up): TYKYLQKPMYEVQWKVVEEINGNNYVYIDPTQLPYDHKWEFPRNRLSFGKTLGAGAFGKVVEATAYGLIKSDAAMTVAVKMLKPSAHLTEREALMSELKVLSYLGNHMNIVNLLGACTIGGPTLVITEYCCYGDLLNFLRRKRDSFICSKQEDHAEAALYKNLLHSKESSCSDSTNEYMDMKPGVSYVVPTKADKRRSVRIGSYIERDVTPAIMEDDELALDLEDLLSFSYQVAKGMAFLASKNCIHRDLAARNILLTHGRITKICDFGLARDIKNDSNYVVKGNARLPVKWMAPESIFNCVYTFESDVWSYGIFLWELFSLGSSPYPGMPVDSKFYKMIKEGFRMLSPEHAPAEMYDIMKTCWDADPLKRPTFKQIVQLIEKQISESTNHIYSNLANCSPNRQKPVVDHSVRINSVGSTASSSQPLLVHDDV

KIT, construct: aa544-end, human (from UniProt P10721)
relative phosphorylation
Conditions	at +1	at +2	at +3	at +4	at +5	at -1	at -2	at -3	at -4	at -5
A fixed	0.767	0.817	0.577	0.912	1.01	0.799	1.12	1.03	1.1	1.01
D fixed	0.38	0.893	0.392	0.969	0.604	1.62	1.26	1.51	1.33	1.22
E fixed	0.666	1.19	0.276	0.92	0.618	1.36	1.45	1.76	1.51	1.04
F fixed	1.99	1.1	2.08	1.13	1.9	1.06	0.614	0.837	0.973	0.976
G fixed	0.387	0.485	0.529	1.03	1.16	0.521	1.19	1.1	1.17	1.22
H fixed	1.82	0.971	0.859	1.14	0.933	1.39	0.967	0.973	0.913	1.04
I fixed	1.78	0.95	2.43	0.817	0.793	1.86	0.881	0.703	0.892	0.869
K fixed	0.694	0.803	0.588	1.05	0.596	0.494	0.669	0.754	0.806	1.03
L fixed	1.18	1.15	1.76	0.826	0.911	1.06	0.867	0.707	0.801	0.849
M fixed	1.17	1.02	1.42	0.903	0.949	0.834	0.763	0.764	0.865	0.848
N fixed	0.554	1.05	0.581	0.952	0.811	1.13	1.15	1.18	0.92	1.07
P fixed	0.495	0.925	1.1	0.96	1.48	0.883	1.26	1.07	1.12	1.13
Q fixed	1.12	1.05	0.591	1.09	0.773	0.87	1.15	1.01	1.05	0.891
R fixed	0.761	1.04	0.871	1.26	0.822	0.487	0.857	0.774	0.929	0.958
S fixed	0.649	0.88	0.53	0.99	0.904	0.644	1.14	1.09	0.934	0.983
T fixed	0.834	0.943	0.706	0.87	0.953	0.952	1.08	1.03	0.834	0.985
V fixed	1.65	1.02	1.65	0.868	0.776	1.37	0.909	0.756	0.775	0.797
W fixed	1.11	1.71	1.07	1.32	2.01	0.667	0.676	0.95	1.09	1.1
pThr fixed	0.919	1.81	0.344	0.573	0.504	1.43	1.17	1.69	1.35	1.26
pTyr fixed	2.18	2	0.413	1.16	0.73	4.18	1.59	1.89	1.48	1.4

LIMK1, construct: aa285-end, human (from UniProt P53667)
relative phosphorylation
Conditions	at +1	at +2	at +3	at +4	at +5	at -1	at -2	at -3	at -4	at -5
A fixed	0.862	0.869	0.944	1.08	0.821	0.957	0.937	0.905	1.05	0.934
D fixed	0.776	0.662	0.6	0.613	0.56	0.811	0.735	0.778	0.812	0.737
E fixed	0.728	0.669	0.66	0.544	0.532	0.672	0.689	0.68	0.763	0.813
F fixed	0.879	1.2	1.21	1.23	1.18	0.849	1.08	1.21	1.02	1.1
G fixed	1.22	0.739	0.954	0.989	0.991	1.31	1.02	1.04	1.08	1.02
H fixed	1.06	1.07	1.11	1.1	1.06	1.06	1.02	0.955	0.953	1.09
I fixed	0.769	0.852	0.813	0.902	0.748	0.753	0.853	0.667	0.769	0.946
K fixed	1.35	1.49	1.4	1.37	1.46	1.28	1.33	1.16	1.3	1.14
L fixed	0.738	0.856	0.829	1	0.825	0.782	0.822	0.865	0.833	0.876
M fixed	0.802	0.926	0.996	0.973	0.836	0.793	0.833	0.801	0.837	0.843
N fixed	1.09	0.92	0.945	0.797	0.838	1.01	1.26	1.29	0.885	0.902
P fixed	1.11	0.849	0.97	0.87	0.89	1.12	1.09	1.02	1.06	0.935
Q fixed	0.961	0.921	0.865	0.74	0.849	0.888	0.846	1.13	1	0.858
R fixed	1.6	1.63	1.39	1.24	1.43	1.53	1.31	1.42	1.41	1.34
V fixed	0.713	0.979	0.782	0.907	0.754	0.81	0.86	0.819	0.807	0.837
W fixed	1.34	1.37	1.54	1.64	2.22	1.38	1.31	1.26	1.42	1.62
pThr fixed	0.753	0.513	0.519	0.596	0.409	0.704	0.664	0.635	0.96	0.703
pTyr fixed	0.761	0.655	0.689	0.61	0.518	1.61	0.887	1.34	0.667	0.744
